# In patent US20040018971A1 (published 2004):
# Where no end group is shown, it is not given here. [ ]: non-standard residue; d: D form. Abu = CC[C@H](N)C(=O)O
# Target: T1, HLA-A*0201 (human)
# T1 construct: Purified HLA class I molecule (MHC, no peptide specified); also called HLA-A2.1
# Test: competition with 125I-labelled probe peptide for purified HLA-A*0201, gel filtration
row,Binder,relative binding ratio
1,"KIPVAIKVL (Synthetic peptide) [HER2/neu peptide, position 747, 9 amino acids]",0.0002 ratio (IC50 of standard peptide / IC50 of test peptide)
2,"LLEDDDMGDL (Synthetic peptide) [HER2/neu peptide, position 1008, 10 amino acids]",0.0001 ratio (IC50 of standard peptide / IC50 of test peptide)
3,"ILLVVVLGV (Synthetic peptide) [HER2/neu peptide, position 661, 9 amino acids]",0.002 ratio (IC50 of standard peptide / IC50 of test peptide)
4,"LLALLPPGA (Synthetic peptide) [HER2/neu peptide, position 12, 9 amino acids]",0.0008 ratio (IC50 of standard peptide / IC50 of test peptide)
5,"LAVLDNGDPL (Synthetic peptide) [HER2/neu peptide, position 114, 10 amino acids]",0.0002 ratio (IC50 of standard peptide / IC50 of test peptide)
6,"KITDFGLARL (Synthetic peptide) [HER2/neu peptide, position 860, 10 amino acids]",0.002 ratio (IC50 of standard peptide / IC50 of test peptide)
7,"LLVVVLGVV (Synthetic peptide) [HER2/neu peptide, position 662, 9 amino acids]",0.0001 ratio (IC50 of standard peptide / IC50 of test peptide)
8,"KIRKYTMRRL (Synthetic peptide) [HER2/neu peptide, position 681, 10 amino acids]",0.0001 ratio (IC50 of standard peptide / IC50 of test peptide)
9,"ILKETELRKV (Synthetic peptide) [HER2/neu peptide, position 714, 10 amino acids]",0.0001 ratio (IC50 of standard peptide / IC50 of test peptide)
10,"LIAHNQVRQV (Synthetic peptide) [HER2/neu peptide, position 85, 10 amino acids]",0.0001 ratio (IC50 of standard peptide / IC50 of test peptide)
11,"KVPIKWMAL (Synthetic peptide; also called KVPIKWMAL) [HER2/neu peptide, position 883, 9 amino acids]",0.0002 ratio (IC50 of standard peptide / IC50 of test peptide)
12,"LLALLPPGAA (Synthetic peptide) [HER2/neu peptide, position 12, 10 amino acids]",0.0006 ratio (IC50 of standard peptide / IC50 of test peptide)
13,"LLPPGAAST (Synthetic peptide) [HER2/neu peptide, position 15, 9 amino acids]",0.0007 ratio (IC50 of standard peptide / IC50 of test peptide)
14,"LLGICLTSTV (Synthetic peptide) [HER2/neu peptide, position 785, 10 amino acids]",0.049 ratio (IC50 of standard peptide / IC50 of test peptide)
15,"LLNWCMQIA (Synthetic peptide) [HER2/neu peptide, position 822, 9 amino acids]",0.0046 ratio (IC50 of standard peptide / IC50 of test peptide)
16,"LLLALLPPGA (Synthetic peptide) [HER2/neu peptide, position 11, 10 amino acids]",0.0054 ratio (IC50 of standard peptide / IC50 of test peptide)
17,"LAALCRWGLL (Synthetic peptide) [HER2/neu peptide, position 3, 10 amino acids]",0.0022 ratio (IC50 of standard peptide / IC50 of test peptide)

# Target: T2, HLA-A*0101 (human)
# T2 construct: also called HLA-A1
# Test: competition with 125I-labelled probe peptide for purified HLA-A*0101, gel filtration
row,Binder,relative binding ratio
1,"RVLQGLPREY [HER2/neu peptide, position 545, 10 amino acids]",0.0015 ratio (IC50 of standard peptide / IC50 of test peptide)
2,"ELHCPALVTY [HER2/neu peptide, position 265, 10 amino acids]",0.0015 ratio (IC50 of standard peptide / IC50 of test peptide)
3,"RLLDIDETEY [HER2/neu peptide, position 868, 10 amino acids]",1.3 ratio (IC50 of standard peptide / IC50 of test peptide)
4,"ELMTFGAKPY [HER2/neu peptide, position 914, 10 amino acids]",0.0082 ratio (IC50 of standard peptide / IC50 of test peptide)
5,"TLEEITGYLY (also called Her2/neu.402) [HER2/neu peptide, position 402, 10 amino acids]",1.1 ratio (IC50 of standard peptide / IC50 of test peptide)
6,"YVMAGVGSPY [HER2/neu peptide, position 772, 10 amino acids, listing 1 of 2 here]",1.1 ratio (IC50 of standard peptide / IC50 of test peptide)
7,"PLTCSPQPEY [HER2/neu peptide, position 1130, 10 amino acids]",0.0072 ratio (IC50 of standard peptide / IC50 of test peptide)
8,"FSPAFDNLY [HER2/neu peptide, position 1213, 9 amino acids]",0.043 ratio (IC50 of standard peptide / IC50 of test peptide)
9,"GSGAFGTVY [HER2/neu peptide, position 727, 9 amino acids]",0.0011 ratio (IC50 of standard peptide / IC50 of test peptide)
10,"LIQRNPQLCY [HER2/neu peptide, position 154, 10 amino acids]",0.03 ratio (IC50 of standard peptide / IC50 of test peptide)
11,"VVQGNLELTY [HER2/neu peptide, position 55, 10 amino acids, listing 1 of 2 here]",0.018 ratio (IC50 of standard peptide / IC50 of test peptide)
12,"ASPLDSTFY [HER2/neu peptide, position 997, 9 amino acids]",0.029 ratio (IC50 of standard peptide / IC50 of test peptide)

# Target: HLA-A*6801 (human)
# Test: inhibition of 125I probe peptide binding to purified HLA
row,Binder,IC50 [nM]
1,IVKGGVLIQR (synthetic analog peptide) [Her2/neu.148.V2],29
2,IVWLGLRSLK (synthetic analog peptide) [Her2/neu.450.V2K10],12
3,"TVBAGGBAK (B at positions 3 and 7 = alpha-amino butyric acid (in place of cysteine), synthetic analog peptide; also called TVBAGGBAK) [Her2/neu.218.B3B7K9]",7.3
4,TVCAGGCAR (synthetic peptide) [Her2/neu.218],83

# Target: HLA-A*3101 (human)
# Test: as above
row,Binder,IC50 [nM]
1,IVKGGVLIQR (synthetic analog peptide) [Her2/neu.148.V2],72

# Target: HLA-A*0301 (human)
# Test: as above
row,Binder,IC50 [nM]
1,IVKGGVLIQR (synthetic analog peptide) [Her2/neu.148.V2],275
2,IVWLGLRSLK (synthetic analog peptide) [Her2/neu.450.V2K10],3.9
3,"TVBAGGBAK (B at positions 3 and 7 = alpha-amino butyric acid (in place of cysteine), synthetic analog peptide; also called TVBAGGBAK) [Her2/neu.218.B3B7K9]",24

# Target: HLA-A*1101 (human)
# Test: as above
row,Binder,IC50 [nM]
1,IVKGGVLIQR (synthetic analog peptide) [Her2/neu.148.V2],7500
2,IVWLGLRSLK (synthetic analog peptide) [Her2/neu.450.V2K10],128
3,"TVBAGGBAK (B at positions 3 and 7 = alpha-amino butyric acid (in place of cysteine), synthetic analog peptide; also called TVBAGGBAK) [Her2/neu.218.B3B7K9]",29
4,TVCAGGCAR (synthetic peptide) [Her2/neu.218],261

# Target: HLA-B*5301 (human)
# Test: competition with 125I probe peptide, purified HLA
row,Binder,IC50 [nM]
1,CPSGVKPDLSI (analog peptide) [Her2/neu.600.I11],344

# Target: HLA-B*5101 (human)
# Test: competition with 125I probe peptide, purified HLA
row,Binder,IC50 [nM]
1,CPSGVKPDLSI (analog peptide) [Her2/neu.600.I11],138

# Target: HLA-B*0702 (human)
# Test: competition with 125I probe peptide, purified HLA
row,Binder,IC50 [nM]
1,CPSGVKPDLSI (analog peptide) [Her2/neu.600.I11],290

# Target: T3, HLA-A*0301 (human)
# T3 construct: Purified HLA molecule, 5 to 500 nM in the assay; also called HLA-A3
# Test: competition with 125I-labelled probe peptide on purified HLA-A*0301, gel filtration; ratio to standard peptide 941.12
row,Binder,relative binding ratio (IC50 of standard peptide / IC50 of test peptide) [relative binding ratio]
1,"YVMAGVGSPY [HER2/neu peptide, position 772, 10 amino acids, listing 2 of 2 here]",0.01
2,"WMIDSECRPR [HER2/neu peptide, position 959, 10 amino acids]",-0.0002
3,"VLIAHNQVR [HER2/neu peptide, position 84, 9 amino acids]",0.0033
4,"VTGASPGGLR [HER2/neu peptide, position 129, 10 amino acids]",0.0002
5,"WMALESILRR [HER2/neu peptide, position 888, 10 amino acids]",0.0085
6,"YVLIAHNQVR [HER2/neu peptide, position 83, 10 amino acids]",0.0043
7,"VARCPSGVK [HER2/neu peptide, position 597, 9 amino acids]",0.01
8,"TVPWDQLFR [HER2/neu peptide, position 479, 9 amino acids]",0.0006
9,"YLEDVRLVHR [HER2/neu peptide, position 835, 10 amino acids]",0.0003
10,"VSEFSRMAR [HER2/neu peptide, position 973, 9 amino acids]",-0.0002
11,"WMALESILR [HER2/neu peptide, position 888, 9 amino acids]",-0.0002
12,"VLVKSPNHVK [HER2/neu peptide, position 851, 10 amino acids]",0.082
13,"VLQGLPREY [HER2/neu peptide, position 546, 9 amino acids]",0.0012
14,"VVQGNLELTY [HER2/neu peptide, position 55, 10 amino acids, listing 2 of 2 here]",0.0024
15,"WIPDGENVK [HER2/neu peptide, position 739, 9 amino acids]",0.0002
16,"VTAEDGTQR [HER2/neu peptide, position 322, 9 amino acids]",0.0002
